Data reported in the DeepSol protein solubility set.

test: soluble on expression in E. coli; label from the status in PepcDB or PDB records

Sequence	soluble on expression in E. coli
MTNSVLRVLEHLRAHDHDAIVLAPGDADTPHEYAGFPVIPLASLHWPGYQDVRVSTSPQWTMERYLSEFEPDVVHLAGPFMIGYKGAMAAASLGIPIVAIYQTDIPSYAGRYGLGKLEFYGWYRVRQIHSLAVATYAPSTFSRDQLVSHGVPRVDIWGRGVDKVRFHPSKRSQQLHDEWAPNGEVVIGYMGRLAAEKRVADMTNLADIPNTKLVIVGDGPARAEVEKQLPHAVFTGGLGGEDLPRALASMDVFCSTGELETFCQAVQEAKACGLPVISPRKGGPIDLIDSSRTGWLYEPGDMTDFRSRVIDLVGDDYKRHAMGIAARASIENRTWENLCAELVEHYKEAIRLAGRSTRIRAVLLEHHHHHH	not soluble
MMKDAVVITVGNEVLKGRTVNTNASFIGNFLTYQGYRVKLGLTVMDDLEDISWAFKTAMDRGDVIVSSGGLGPTFDDMTVEGFAKAIGSDNKLNQDALAMIEEKYKNIEITPERKKMAMMPEVCKPIRNPVGTAPGLLCSVGGKKVVILPGVPMEMQALLESMRDSLAIENSCYFDESINITGIMESTFAPYVERVMREVDGVYVKSHPKNIEVVNPSLEIEVSAYDVSQEAARKKVKDAIARIRAYAETILDSKDK	not soluble
MKTLLTSATLLVTTLSTPLMAKEADIQSLVNAAQKEGQVYSVGMPGSWANWKDTWNDLNKLYGLKHQDTDMSSAQEIAKFAAEKNNATADIGDIGFAFARVAVKKGVTQAYKPTTWDSIPDWAKDKDGHWALAYTGTISFISNNKLVKNPPTSWDDLLEGNYKVSVGDVGVAAQANNAVLAAAFAKGGDESNLKPAIKFFAELAKQGRLSYTDPGLANLEKGEVEVALLWDFNALNYRDKLGRDRFSVNIPQDGSVISGYTTIINKFAKNPNSAKLAREYIFSDQGQINLAEGYARPIRSDVVLPQSIQDKLIPNDQYTNVQPVSDFKAWEKSARKLPRQWQENVLINQQ	not soluble
MAHHHHHHMPPLHSRATRQLVKERSKIEGPRSLHRGIHYQENEAHASSYMQNAKKKRADHRDLLVHHQRINEDLQDIYTRTAALHSDNMTMEERIEESWKKYERIGGKRPANVRTHGQDAVLCANQTAVPYAERLAQVSQQKKELRERGAWERLTHGEAVDYSKGSALHAAKDKRVQMFQRRQLRRAHLLRRVGDPTPLKQSGTYDMNSGTLRVFNKTIRNVQREVAHDARIAEVRKRRKNSRSQWDLNESGNVNRPDQEILRYSRDWELGPQRKARGGGGGGGRGGRKRGRDEL	not soluble
MYNDRHLSLFHLLFRAKIQRAINYFFMITFSEIQLLRGGKPLLEQASATIHPGDKVGLVGKNGCGKSTLFALLKDELTIDAGSFSKPAHWELAWVAQETPALDRTALEYVIDGDREYRELERQLMDAEAADNGTKVADLHGKIEMVGGYSIRARASELLDGLGFTQEQMSWSLTQFSGGWRMRLNLAQALICRSDLLLLDEPTNHLDLDAVMWLERWLQSYPGTLILISHDRDFLDPIVNRIVHIENQTLNEYTGNYSSFETQRAQKMLQQQAIYQKQQKQMAHMQSYIDRFRYKASKARQAQSRIKALERMEKVLPAQFDNPFSFEFREPAALPNPILMMDQVAAGYGDHLILEKIRLNLVPGSRIGLLGRNGAGKSTLIKLLSGELKPQSGDCTYSQGVKIGYFAQHQLETLHPEETPLQHMMQIAPDKNELELRNYLGSFGFHGEKALEKVAPFSGGEKARLVLALIVWQKPNLLLLDEPTNHLDLDMRQALTLALQSYEGAMVIVSHDRYLLRATTDDLYLVHDHQVGPFDGDLNDYYKWLTDQQKAERKETQPTNTANSANSAAAKKEQKRREADFRKLTAPIRKKLTQLEEKLDKLNHVVSEMEAQLSDTSLYEAQNKATLTEVLAKQAAAKSELEQVELEWMAEQETLEEMERKFNG	not soluble
MGSDKIHHHHHHMNDPAHPPIPPVSKRDAPAFSDLQHRATSASAFTQGSTTYHDVRPGYPAEAVELARGFGRVLDVGAGTGKLTSELTADQVLALDPSMDMLRVFRSALPAVPCWQATAEHTGIRDNAVDLITCAQTWHWVDVTAASAEFDRVIAPEGAVLLVWNNLDTSIAWVHRLSRIMHAGDVLKPGFTPETAAPWIIDREIRTTWNQHLTPEEIIQLAHTRSYWLNASEKIKERVDQNLQWYLYEHLGFSPDNPVELPYRCDAFLLSRSGTLAGRSSNL	not soluble
MGSDKIHHHHHHEDVYREVTASGAHNLTLAVDNPRNLGGADDAALARDVAEVLRFDMTLAGPFSVMAPPAGTSPGGIRPGEFDLDSWRNAGVDLLVKSGYTITGDSVTMEFRLYNATQGRELAAKRYTGKRSDLRRITHTFSDDIMQTMTGERGPFTGKIAFVSTESGNKEIYLMDYDGHNVQRLTKNRSINLNPDFSPNGRELAYTSYRRGNPDLFRREIFTGTEAVVSSHRGINVTGTWSPDGKQLALAMSRDGNSEIYAISRDGRDPRRLTTHQAIDVSPAWSPDGKRIAFVSDRLGKPQVFIMNADGSDVRRLTTSGAYNVSPRWSPKGDRLVYCRQEGGFQIYSIATDGTGDTRLTSEGSNEHPRWSPDGRFLTFSSTRDGGEAIYVMRSDGSGQTRVYRSKGKASHPTWSPRW	not soluble
MGQVLPLVTRQGDRIAIVSGLRTPFARQATAFHGIPAVDLGKMVVGELLARSEIPAEVIEQLVFGQVVQMPEAPNIAREIVLGTGMNVHTDAYSVSRACATSFQAVANVAESLMAGTIRAGIAGGADSSSVLPIGVSKKLARVLVDVNKARTMSQRLKLFSRLRLRDLMPVPPAVAEYSTGLRMGDTAEQMAKTYGITREQQDALAHRSHQRAAQAWSDGKLKEEVMTAFIPPYKQPLVEDNNIRGNSSLADYAKLRPAFDRKHGTVTAANSTPLTDGAAAVILMTESRAKELGLVPLGYLRSYAFTAIDVWQDMLLGPAWSTPLALERAGLTMSDLTLIDMHEAFAAQTLANIQLLGSERFAREALGRAHATGEVDDSKFNVLGGSIAYGHPFAATGARMITQTLHELRRRGGGFGLVTACAAGGLGAAMVLEAE	soluble
MDDPNRIVSASRRPKALIRLLDSQQIEVVLHSRLSVEDVLRLVAEKVDLSFPDSQYFCLGFSDNLNNFHWLDGSVILYDLVASTSNPKGTLTLSHHVRFFVDTIYEVQCASTAKLFFFDIHNQLARHELLVTSEDYFELVAILVSVFVPDCQEHTTAEAISRIMPMSHPPYILLKTDQSEVERRVFEKFRYYRRLPVGTGMISFIKLAEKSESYGYRMYEALNENNDKCILSIGYKGIYIYRRSRHQNLITPYLAYPWRVIDNLYYRDKKFSIEIREPKNSLHSNSSIGTMPSAKIGDGSTSSLPMSSAKPMSTQTSEPQLPDVPEPNESLHNKTIDEFQKDQEKCDRLKARKAELEMRLRQKMQELKDVCVEEGDITGEMPVEINDVVLPGDDFPRLKRRVGTAYSIPDELIKADKADKMSQLETDVELHRRIVAAASRLATDKNTNKSVRKKRQKDLQAARLRLNRLEQGLQQMRHSASKPDISSLTSDSSNSWTASNSSGPMLTMAMTKSCPTTPRGSVPDLRNGLDDEKDEFDENVEDRVSRRAPSAISRHSLSQRYSGVSSSSTSSGSDSMGLGLPPRPTSRKSQQQQTTPFDDQLDNPMICEIPPPPSSAAAHPLLVTNLLSRGKTTGCRVLTEYYPVLKRIRTNY	not soluble
MSAMNARQGILSLALKDKPALYSAYMPFVKGGGIFVPTPKRYMLGDEVFLLLTLPDSSERLPVAGKVIWTTPAGAQGNRAAGIGVQFPDGPEGEAVRNKIETLLAGLTTSDKPTHTM	soluble
MGSDKIHHHHHHMTIMSIGIIIASHGEFAAGIHQSGSMIFGEQEKVQVVTFMPNEGPDDLYAKFNNAVAAFDAEDEVLVLADLWSGSPFNQASRVMGENPERKFAIITGLNLPMLIQAYTERLMDAAAGVEKVAANIIKEAKDGIKALPEELNPVEEVASAAAAPVAQTAIPEGTVIGDGKLKINLARLDTRLLHGQVATAWTPDSKANRIIVASDNVAKDDLRKELIKQAAPGNVKANVVPIQKLIEISKDPRFGETHALILFETPQDALRAIEGGVPIKTLNVGSMAHSTGKTLVNTVLSMDKEDVATFEKMRDLGVEFDVRKVPNDSKKDLFDLINKANVK	not soluble
MSLSSKEYFSDTDSFENTPCPLCGSESSSLLYEINSYKYNKCNNCELVYLNPRLKEESLLEYYAQDSFYAEYSSGTGYEIQERALRSTFSRYMKELHKRNVTGGKLLEIGCGFGFLLDEAKNYFDYRIGTDFSSEAVSHAKKYADNVYCGGLEAIPSDTSTKFDCVITFSVLEHVYNPNTFIQEIQNYMAPNGSLVVSTPFIGGMWYKILGKKWSFFIPPEHVCLYNHNSISQLLKQNGFKNIEMFISSHAWPVAGFLSKMGMRKLSSMTLKLKIGDVPLFVPFTIINIIGSKEGHHHHHH	soluble
MWVDGMAKVVEVGRICVKTRGREAGRKCVIVDIIDENFVLVTGPKSLTGVRRRRVNIDHIEILDKKVDIQKGASDEEVLKALEEAGLADFMREPVRIARITPFTLLEHHHHHH	not soluble
MALIRATLPVVEPGRTEIHLPHWDGIEQQHGFIHGGVVGMIADSAAGYAAMTLVPAEASVLTVEYKMNLMAPAEGERLIARGEVVRAGRTLIVTRAEVLALRDGAERLCALMQQTIMVMHARPEKLDAPPAALEHHHHHH	not soluble
MSLSQFAAGAGKKAGEFYTPQEVSRILAEIVAIGHQRLRNVYDPTCGSGSLLLRAASIGNAVDIYGQEKNPTTYNLARMNMLLHGIRFSNFKIENGDTLEWDAFGDTQFDAVVANPPFSAEWSAADKFNTDDRFSKAGRLAPRKTADYAFILHMIYHLNEGGTMACVAPHGVLFRGNAEGVIRRFLIEKKNYVDAIIGLPANIFYGTSIPTCILVFKKEGHHHHHH	not soluble
MKKTAIALLAWFVSSASLAATPWQKITHPVPGAAQSIGSFANGCIIGADTLPVQSDNYQVMRTDQRRYFGHPDLVMFIQRLSHQAQQRGLGTVLIGDMGMPAGGRFNGGHASHQTGLDVDIFLQLPKTRWSQAQLLRPQALDLVSRDGKHVVPSRWSSDIASLIKLAAQDNDVTRIFVNPAIKQQLCLDAGNDRDWLRKVRPWFQHRAHMHVRLRCPADSLECEDQPLPPPGDGCGAELQSWFEPPKPGTTKPEKKTPPPLPPSCQALLDEHVL	not soluble
MISILHVAARVLELRPSCDKMKLYKLCYFSQGWHLAWTGRPLFNEELQAWKYGAVSPTLRQASGLRADDDRLVTQIWSGDSSQLIDYERSVVDTVVSFYGDLESFHLSDLSHGFAWSTVRGNLPPDASCSDVIPHSLIRREFVENAWGEAPTPNAPERLPSMALDALEQAADDVAAENAETLRLLAFI	not soluble
GPGSMRNLVREGITPPVLVFVQSVERSKELYEEIRMEGLHMAIMHAKMTVEQREETVLQFRLGKIWVLVTTELLARGIDFKNVGTVINFDFPATVDSYIHRVGRTGRAGKEGTAITFFTEDDKERLPPIAKVMQDSGNAVEDWILGIKVDRSTRRRLERTTPQRTIVSTRKRMLVAQQRVQRQYRRLEAEKAAKQASKRSKGCGDCDRDDGDDSTDDA	soluble
GPGSMSKYANPDYWEERYRSNDTTFDWYLTFDNLEPVLRPMLQPAEQIHVLVVGCGNSRLSPCMYEHLNVRKITNVDVSPTVISQMTRRYKGMDEMRWICCDLIHTAPDKLLTLLCPEDALFDFVIDKGLVDATLGGSNSFHNLYTLTKNLARVMKNGGRFLSVSYGAPETRIDHFRRRKLNFDVEHRTIEKSVFASGAAPTGSYHVYIMTKLGERQAVTAGAADDGALSGDTDDDDDFYDRFMTKANTTSADAARFD	soluble
